Assay results taken from the DeepSol protein solubility set.

Assay: soluble on expression in E. coli; label from the status in PepcDB or PDB records

Sequence | soluble on expression in E. coli
MSTFIRGPICGTDNCPSRLWRIIDGRRTCQYGHVMEGDVEFNDDEDDLNGLGAGVITRRLNLTTNATGSFQSSQLTNSQLLQQQQRQSHKKFKKLIGHEAKLLFLKSFQFILKRQIRWLITEMRFPKEFEHVAKIIWLKILKTINDQPQEELKLQLHMTSTISILYLASTHLSLPVYTCDYIKWICTAKMPYFQASEILPKSWRIQLPNYYVSILEGSISPFNGQLYNKIALTCGMIHFKEFFNSEISCQGLLLKLVMQCALPPEFYFYTKQVIEFEETDIRNLTLWERTDERHTGRVSNHAELRVLSYFMLTINWMLSFDRDRQYPLKWILSLTESLTQRTTTSESIGRNIVKVVYPDKPTSSDYFQWSEEETLEFLKWMEKQFLPTQTKSLHNENGSMEMTIDQKIARRKLYKIFPLDREANHDGEFNDSTHQLTFIEDLQERYAKQTPFFESNKIRDSLNYQEANPPARKEAIGRLLTHIASQLLVDFAISKEQLKDCISRIKNACLHRMN | not soluble
MFKVLAEAFASARLRLGAILFSPQSLAFLPAFCLGLYWYGGETALMITALVFPVFFLVARAKLAETVTTSRQDSVLGVMQPDGFQDIVAARFREARAGGLISTVFQIEIDDHTSLVERHGQRAAEVISTTSADRIAAVLRDRDAVTHLDTFKYAVCLEPVRQMDLELCIQLAGRIQAALEEPIALDATAVCITSSVGFCQQTKVLSRSGEAWLAAAGHALREAHLNGPGAIRAYSEKMQQKSEIRAELREEVAQALEKGQIKPWFQPQISTDTGLVTGFEALARWNHPKRGMVPPGAFLTAIEQAGMLEKLAEVMIFHAFTALKAWDSAGVCVPQVGVNFAGPELSNPKLVDKIIWELDRFDLAPERLAVEVLETVVANSPDDTITRNINGLSKLGCRIDLDDFGTGHASISSIRRFSVSRIKIDRSFVIKADRDPEQQRMISAILTMAERLEVETLAEGVESVGEHALLAQLGCDHVQGFGIGKPMPFDQTLDWIASHNAKLQATPQILPNKLRLEHHHHHH | soluble
MKAVMLLSGGIDSSTLLYYLLDGGYEVHALTFFYGQKHSKEIESAEKVAKAAKVRHLKVDISTIHDLISYGALTGEEEVPKAFYSEEVQRRTIVPNRNMILLSIAAGYAVKIGAKEVHYAAHLSDYSIYPDCRKEFVKALDTAVYLANIWTPVEVRAPFVDMTKADIVRLGLKLGVPYELTWSCYEGGDRPCLSCGTCLERTEAFLANGVKDPLLSDEEWKNAVKIYEEMRARNEGKSD | not soluble
MGHHHHHHSHTRDELRAKALHIPFPVEKIINLPVVDFNEMMSKEQFNEAQLALIRDIRRRGKNKVAAQNCRKRKLENIVELEQDLDHLKDEKEKLLKEKGENDKSLHLLKKQLSTLYLEVFSMLRDEDGKPYSPSEYSLQQTRDGNVFLVPKSKK | soluble
MAHHHHHHMNSKDTNELKRGAGYLKEKAIIGLTRVTGNELDRAIYKVTSHKLKAPKEKHMQRVLAATRGYSSQKTHKGRNTCEYIVSEFEKRLHTHNWIVVLKTLVTFHRLMKDGSDEVNNCIQQNRNIFCFRNIKDLSESSEGAVQSVFIRQYMYYLEERSSSQRKLGASKRMENSEFGVFLRSLDVDTLGPVFESLLVQLSALVEVQYKEAIVDNFCTMEAFQRLVNDGKLLYQILSDRAIFILDGFSGFTLQQKKDWVRRYREYTVVGERLRLLFESIANSKRMFDEPPPPLKALPGSLLESLEREVRLSSIAHEDITETLESLGITADEKTPLKATTSDGTMAIYSPVATEKALDTTETGAPPVTEPKKESGFSIDDLFVPPPVTDSHQQTSYNPSTIPQGTQMEGPLIQTEANPNMTYTFPTGVPVGQNFFGQQPTGNSLTWEAPSPAPGSMQPQSAAGIVPSWSDSSASWGRGNCGSNTVDPFKDLYASQKGGQ | soluble
MGSDKIHHHHHHMNQNVTSKVYPWQQTMWETLTTRFPNIGHGLLFYGKQGCGKHAFAKHFLAWVLCLNKQPQGACGECSSCQWLKSDTHPNYVHITTDEENKKQNAKIKIEKIRDLLPFVQQTGEGWRVVVIEPAEALNLASSNALLKTLEEPGERVVLILLADHYLKLPATIRSRLQHFALDRISYTEATSYLNEHLAETASVPAELLLGLSNDMPLQAVEIATSDWFAKRQSFLEDWTKVVNQKNMPLFYSAKWQKELNFSDFMMLLEYLLGDLICVKLNQPQKNIDLQFDQLAQNYNLESLFSLYEELQQSKRLVEQNVQTQLIIDQLFIKLMNV | not soluble
MIVTSLEDLRSRLRAYVSENGLRHTPERYSILEVAYNLKKIFTPDDLFDLTRENGLPVSLSTVYNTLTLLERCGIVLRLPSPETKYQYLMASFAEQCPLLFCTECAQFSTYYRRNVKSILADKDLRPPRFSYRQAIICLYGICDKCRKKQSALKKAADKAAPKKKK | not soluble
KETVPYQIPYTPSELEELQQNIKLELEGKEQELALELLNYLNEKGFLSKSVEEISDVLRCSVEELEKVRQKVLRLE | soluble
MITFRKRVEIEADPAEVFRVISDPWRITEFWKGTRQVIEDGDFYRIRFAFPAWGLMSFHPDAERMTVLTSYLKGPVRGSKVDAVLVSSGKTVLQTEWNVRLSFYLRPFERRIASHFESGADHAINRIKESVEKDKK | not soluble
MELDGKAPSHRNLNVQTWSTAEGAKVLFVEARELPMFDLRLIFAAGSSQDGNAPGVALLTNAMLNEGVAGKDVGAIAQGFEGLGADFGNGAYKDMAVASLRSLSAVDKREPALKLFAEVVGKPTFPADSLARIKNQMLAGFEYQKQNPGKLASLELMKRLYGTHPYAHASDGDAKSIPPITLAQLKAFHAKAYAAGNVVIALVGDLSRSDAEAIAAQVSAALPKGPALAKIEQPAEPKASIGHIEFPSSQTSLMLAQLGIDRDDPDYAAVSLGNQILGGGGFGTRLMSEVREKRGLTYGVYSGFTPMQARGPFMINLQTRAEMSEGTLKLVQDVFAEYLKNGPTQKELDDAKRELAGSFPLSTASNADIVGQLGAMGFYNLPLSYLEDFMRQSQELTVEQVKAAMNKHLNVDKMVIVSAGPTVAQKPLEHHHHHH | soluble
MSLGRAGRGIDSAVGILLCGSEDRAIHKFFRESAFPAEAQIHEILNVLSVNDGLTLRGIEQRTNLRYGQIEKALKLLVAENPSPVVYTEKLWRRTIVSFSPDHERINHLMNQRKSELADVESYITTKECKMQFLRRALDEPGAEHCGKCSSCLQHPLLSPDIDSGLLHAANLFIKHADLSLNLNKQVAAGAFTQYGFKGNLPASLQGSTGRILSRWGYSGWGKQVAQEKKTGRFSDELVEACAEMVRQRWNPHPEPTWVCCVPSLKHLDLVPDFESTSTWFLILPGDWRRNLAYLLLMPLKKSWTIHRRKCSKTVSTSVKISTGREGHHHHHH | not soluble
PDATSKKVVPLGVEIYEINGPFFFGVADRLKGVLDVIEETPKVFILRMRRVPVIDATGMHALWEFQESCEKRGTILLLSGVSDRLYGALNRFGFIEALGEERVFDHIDKALAYAKLLVETAEERGRES | soluble
MDSTARGHAPLCRTSNQRGLGTRLNPYYQSTPHQPMVQSMSNPIGSYGEQGNAQIIGSSGQVLSTGPPPGLAPVQCNDFDSCYSSCDDISHPSLSRESSDPSKIDDDQTAPMIRYPAPEVVEFATKLGYSTEQLSHVLNTIGVDSRMDDVLSELVKMGLPGGKPENSGKSGSRNSPEPIMTSSASSSSASSSSSHRPIRQSVSIATSSPATSSSTPSKYNPDPSLRAVVVDGSNVAMLHGRKEVFSCAGLRECLNYFLERGHPEVLIFIPQYRREQPRSDSPITDQHILQEIERHIIYTPSRNVNGRRVVCHDDRYILRTAELKDAVIVSNDEYRDLTRENPAWRKIVEERLLMFTFVEDKSVF | not soluble
MNEEQRKAGTINILAERDRKAEKDYSKYFEQVYQPPSLKEAKKRGKQEVQYNRDFHIDEKYKGMGKGRTFLIKTYGCQMNAHDTEVMAGILNALGYSATSDINEADVILINTCAIRENAENKVFSEIGNLKHLKKERPDCLIGVCGCMSQEESVVNKILKSYQNVDMVFGTHNIHHLPEILEEAYLSKAMVVEVWSKEGDIIENLPKVRDGHIKAWVNIMYGCDKFCTYCIVPFTRGKERSRRPEDIIDEVRELAREGYQEITLLGQNVNSYGKDIEGLDYELGDLLEDISKIDIPRVRFTTSHPWDFTDRMIEVIAKGGNIVPHIHLPVQSGNNQVLKIMGRKYTRESYLDLVSRIKEAIPNVALTTDIIVGYPNETEEQFEETLSLYDDVQFEHAYTYLYSQRDGTPAAKMKDNVPLEVKKERLQRLNKKVGIYSQQAMSQYEGKIVTVLCEGSSKKDENVLAGYTDKNKLVNFKGPRESIGKLVDVKIDEAKQYSLNGTFIQEHQRSMVTQLEHHHHHH | soluble
MGHHHHHHSHKLEEAYEPNQVAISLIGEPTLYPMLPELIEEYKKRGFTTFLVTNGTNPDMLEKVKPTQLYLSLTAFDEDSHLVLNRPGKSNWERVLRSLEVMRDSGSRTVIRLTLIRGYNMDEEAIRKYSELIEMAEPDFIEAKAYMYLGYSRLRLRWGNMPEHADIVEFSRKLADSTGYEVKRESEPSRVVL | not soluble
MSLDKPYHVKFYSYNFPLPKPVVTAHGHWQRRRGLIVELTDQRGNRGRGEIAPLPWFGTEDLASATDFCRSLKGRITPAQIEKIGDRLPCCGFAFGSAEWELESGSVIENSPNSLSYCQLLPTGEAALDYLASNPQLGASTFKWKIGVGDFAVERDLYGQLWRRLPEGCQIRLDANGGLSVDIAQQWLTLLDRQRENSGPKIQYLEQPLPPGEIDEMFRLQEDFATSIALDEAVCSLAQLAQLYDKGWSGLYILKAAIMGNPRVLNHWLKTHPIPAIFSSVFETAIARGQVLALAQKWNLPDHAVGFAPLREPITEATPDSVEGHHHHHH | soluble
MPFIYRRRVQFYETDAQGIVHHSNYFRYFEEARGEFLRSKGFPYSKMRDMGLEVVLLNAYCEYKKPLFYDDVFEVHLNLEELSRFTFTFSYIVFKEDIAVAKANTKHCMVKNGKIVSIPKEVLEVLKD | soluble
MAHHHHHHMVDLLQRALANPFQDKLTFSPEDWDAHGLQPYQRCLREPFLRGCDTLVHKIRMQRIDFAKGILEQVVEDVQFRQKWGSLGEDYVTENAVQLTAYIFDSQERSLGGRRDPRKEDGAAQNIVYQPSTLSLGGDPALESLVTCVWFLRRDVLLLHQDFCYPVCEGRLTVFGRVQVALLRFYVRHAIKPRLLFLRQQHRGTLVVVELMMIGFAFCVERLMRPGLTCSGTVARRIRRVQGGTASSTSTGSGLVSGVHGEDSVAAASSGGGSAGGGGGGGGGGKLHCRPGRRRRWVVVM | not soluble
MQLNETAVGEKVRISELKIENAMLKRRLLALGCDEGCDICIKQKGLFGGPCTFETKGQYISIRQCDACAIMVERRLEHHHHHH | not soluble
MGSDKIHHHHHHMKVGIDAGGTLIKIVQEQDNQRTFKTELTKNIDQVVEWLNQQQIEKLCLTGGNAGVIAENINIPAQIFVEFDAASQGLGILLKEQGHDLADYIFANVGTGTSLHYFDGQSQRRVGGIGTGGGMIQGLGYLLSQITDYKQLTDMAQHGDRNTIDLKVRHIYKDTEPPIPGDLTAANFGHVLHHLDADFTPSNKLAAVIGVVGEVVTTMAITVAREFKTENIVYIGSSFHNNALLRKVVEDYTVLRGCKPYYVENGAFSGAIGALYLEK | not soluble
